± gives the standard deviation of the averaged measurements.
B1: library; a variant is named by its letters at N, in order (parent)
chain: GCUGUCACCGGAAUACCAGCAUCGUCUUGAUGCCCUUGGAAGUCCGGUCUGAUGAGUCCNNNNNGGACGAAACAGC

Assays:
theophylline [1] = variants of: B1; assay: normalized RNA/DNA level with ligand (relative to sTRSVctl = 100) (log10 (% of sTRSVctl)); higher = less ribozyme self-cleavage, higher mRNA level; conditions: ligand concentration (+) RNA-Seq: 5 mM, HEK293T, reporter: mCherry (pCS4076), ligand present: yes
In short: (§1)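 Library plasmids carrying ribozyme switches linked to mCherry, or to eGFP in some ligand experiments, were transfected into HEK293T at 4 µg per 6-well well, with any ligand added 1 h earlier. Seventy-two hours on, total RNA was extracted with EDTA and reverse-transcribed, amplified, barcoded and sequenced. RNA level was RNA over DNA reads normalized to a spiked-in non-cleaving sequence or to the top sequences, then scaled and log-transformed. The top set was 25 sequences, the transform was ×100 and log10, and sequences needed ≥100 DNA reads.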

theophylline [2] = variants of: B1; assay: normalized RNA/DNA level without ligand (relative to sTRSVctl = 100) (log10 (% of sTRSVctl)); higher = less ribozyme self-cleavage, higher mRNA level; conditions: HEK293T, reporter: mCherry (pCS4076), ligand present: no
In short: as §1

theophylline [3] = variants of: B1; assay: FACS-Seq fitted mean relative fluorescence mCherry/BFP without ligand (log10 relative fluorescence); higher = higher reporter protein expression; conditions: HEK293T, ligand present: no
In short: (§2)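 With or without ligand for 48 h, enriched HEK293T libraries carrying a lentiviral ribozyme-switch mCherry reporter and EF1α-BFP were sorted into 6 mCherry/BFP bins. Bin genomic DNA was amplified by PCR, barcoded and sequenced on MiSeq. Fluorescence was taken from normal fits to the resulting bin counts. Each fitted mean of log10(mCherry/BFP) was scaled to five spiked-in control ribozymes.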

theophylline [4] = variants of: B1; assay: FACS-Seq fitted mean relative fluorescence mCherry/BFP with ligand (log10 relative fluorescence); ligand concentration (+) FACS-Seq: 1 mM; higher = higher reporter protein expression; conditions: HEK293T, ligand present: yes
In short: as §2

Variant	normalized RNA/DNA level with ligand (log10) (theophylline [1])	normalized RNA/DNA level without ligand (log10) (theophylline [2])	FACS-Seq fitted mean (log10) (theophylline [3])	FACS-Seq fitted mean (log10) (theophylline [4])
UUUGC	2.05 ± 0.042	1.93 ± 0.023	–	–
UUUGA	2.09 ± 0.097	1.94 ± 0.021	0.62 ± 0.055	0.856 ± 0.079
UUUGU	2.07 ± 0.082	2.02 ± 0.041	0.965 ± 0.067	0.8623 ± 0.0024
GUUUG	1.96 ± 0.091	1.77 ± 0.058	0.972 ± 0.24	0.929 ± 0.17
AUUGU	2.04 ± 0.047	1.88 ± 0.064	1.06 ± 0.018	1.15 ± 0.022
AUUGA	1.99 ± 0.038	1.79 ± 0.08	0.66 ± 0.051	0.85337 ± 0.00081
AUUGC	2.0706 ± 0.0016	2.01 ± 0.087	1.19 ± 0.033	1.02 ± 0.1
UUUUU	2.01 ± 0.027	1.95 ± 0.15	0.93 ± 0.071	0.991 ± 0.017
UUUUC	2.01 ± 0.077	1.99 ± 0.18	0.917 ± 0.042	0.94 ± 0.041
UUGGA	2.01 ± 0.037	1.59 ± 0.14	0.406 ± 0.064	0.494 ± 0.023
CAUUC	2.07 ± 0.066	1.92 ± 0.099	–	–
UUGUC	1.99 ± 0.027	2.01 ± 0.063	0.132 ± 0.031	0.305 ± 0.035
UUGUG	1.96 ± 0.09	1.868 ± 0.014	0.172 ± 0.13	0.266 ± 0.051
UUGUA	1.88 ± 0.029	1.53 ± 0.21	0.431 ± 0.12	0.555 ± 0.051
CUUCC	2.02 ± 0.059	2.032 ± 0.0046	0.782 ± 0.05	0.683 ± 0.091
GUUGU	1.93 ± 0.19	1.84 ± 0.058	0.526 ± 0.054	0.701 ± 0.16
AUUCC	1.99 ± 0.1	1.95 ± 0.072	0.959 ± 0.011	0.909 ± 0.08
AUUCA	2.04 ± 0.066	1.83 ± 0.15	0.9176 ± 0.0013	0.971 ± 0.12
UCUUC	2.03 ± 0.1	1.97 ± 0.046	–	–

Variant	normalized RNA/DNA level with ligand (log10) (theophylline [1])	normalized RNA/DNA level without ligand (log10) (theophylline [2])	FACS-Seq fitted mean (log10) (theophylline [3])	FACS-Seq fitted mean (log10) (theophylline [4])
AUGUG	1.96 ± 0.097	1.87 ± 0.029	0.254 ± 0.065	0.295 ± 0.11
AUGUC	1.99 ± 0.11	1.84 ± 0.066	0.983 ± 0.034	0.935 ± 0.12
AUGUA	1.97 ± 0.11	1.77 ± 0.046	0.696 ± 0.018	0.908 ± 0.042
AUGUU	1.93 ± 0.068	1.87 ± 0.031	0.847 ± 0.054	0.8299 ± 0.0036
UUUCC	1.99 ± 0.028	1.97 ± 0.04	1.01 ± 0.062	0.9258 ± 0.0036
CUGGA	2.02 ± 0.043	1.84 ± 0.095	1.07 ± 0.09	1.09 ± 0.045
UUCAA	2.08 ± 0.056	1.86 ± 0.12	–	–
CUUAA	1.98 ± 0.15	1.61 ± 0.14	0.633 ± 0.018	0.961 ± 0.12
CUUAC	2.04 ± 0.065	1.95 ± 0.15	0.44 ± 0.11	0.194 ± 0.17
CUUAU	2.04 ± 0.071	1.907 ± 0.014	0.864 ± 0.067	0.901 ± 0.013
AUGGC	2.008 ± 0.0029	1.88 ± 0.085	0.932 ± 0.11	0.903 ± 0.041
AUGGA	1.94 ± 0.043	1.68 ± 0.16	0.368 ± 0.04	0.63116 ± 0.00056
AUGGU	2.02 ± 0.032	1.78 ± 0.044	0.596 ± 0.13	0.728 ± 0.049
UUUAC	2.06 ± 0.073	1.98 ± 0.066	0.968 ± 0.059	0.808 ± 0.084
UUUAU	2.0202 ± 0.001	1.93 ± 0.06	0.444 ± 0.021	0.417 ± 0.012
UUUAA	2.05 ± 0.08	1.69 ± 0.019	0.514 ± 0.017	0.695 ± 0.019
CUUUU	1.992 ± 0.0085	1.91 ± 0.045	1.04 ± 0.014	1.15 ± 0.12
CUUUC	2.07 ± 0.067	2 ± 0.092	1.07 ± 0.048	0.998 ± 0.19
